Experiments:
[1] = molecular target: HIV-1NL4-3 Env (envelope glycoprotein of the HIV-1NL4-3 pseudovirus) (HIV-1 (strain NL4-3)); experiment: cell-based or functional assay
[2] = molecular target: HIV-1JRFL Env (envelope glycoprotein of the HIV-1JRFL pseudovirus) (HIV-1 (strain JRFL)); experiment: cell-based or functional assay

| Binder | average IC50, inhibition of pseudovirus infection of TZM-bl cells (luciferase) [1] [pM] | average IC50, inhibition of pseudovirus infection of TZM-bl cells (luciferase) [2] [pM] | IC50, inhibition of pseudovirus infection of TZM-bl cells (luciferase) [1] [pM] | fold reduction of antiviral activity as compared to lipopeptide LP-101 [1] [fold] | IC50, inhibition of pseudovirus infection of TZM-bl cells (luciferase) [2] [pM] | fold reduction of antiviral activity as compared to lipopeptide LP-101 [2] [fold] |
| --- | --- | --- | --- | --- | --- | --- |
| Ac-EIEELEKKIEELLKKAEEQQKKNEEELKKLEK-NH2 (not fully specified (residue 32)) [lipopeptide LP-101] | 0.46 | 2.26 |  |  |  |  |
| Ac-YEQKIEELLKKAEEQQKKNEEELKKLEK-NH2 (not fully specified (residue 28)) [lipopeptide LP-98] | 1.07 | 2.58 |  |  |  |  |
| Ac-WEEWEKKIEELEKKIEELLKKAEEQQKKNEEELKKLEK-NH2 (not fully specified (residue 38)) [lipopeptide LP-104] |  |  | 14.5 | ~32 | 60.2 | ~27 |
